Measurements reported in patent publication US20030082746.

T1: pro-transglutaminase derived from S. mobaraense IFO13819 (transglutaminase having the pro-structure part)
T1 sequence: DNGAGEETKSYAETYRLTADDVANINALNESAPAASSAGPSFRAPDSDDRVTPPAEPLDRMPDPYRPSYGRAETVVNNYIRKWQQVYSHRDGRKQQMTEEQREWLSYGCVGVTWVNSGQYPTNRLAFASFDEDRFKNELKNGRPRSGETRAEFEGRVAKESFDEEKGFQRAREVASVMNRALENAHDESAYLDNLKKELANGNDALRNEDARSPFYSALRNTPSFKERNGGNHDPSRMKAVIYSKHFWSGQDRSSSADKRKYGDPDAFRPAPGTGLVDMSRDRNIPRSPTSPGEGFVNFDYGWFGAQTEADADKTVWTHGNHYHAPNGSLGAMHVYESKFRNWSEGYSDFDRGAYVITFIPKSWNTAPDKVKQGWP

T2: AAA-pNA
T2 chain: AAA

T3: Z-GP-βNA
T3 chain: GP

T4: Suc-AAPF-pNA
T4 chain: AAPF

T5: AP-pNA
T5 chain: AP

T6: Z-AGP-βNA
T6 chain: AGP

T7: RP-pNA
T7 chain: RP

T8: FRAP-pNA
T8 chain: FRAX

T9: AAF-pNA
T9 chain: AAF

T10: AAPL-pNA
T10 chain: AAPL

T11: AAP-pNA
T11 chain: AAP

T12: PSFRAP-pNA
T12 chain: PSFRAP

T13: GP-βNA
T13 chain: GP

T14: DP-pNA
T14 chain: DP

T15: Z-GAP-βNA
T15 chain: GAP

T16: Bz-FVR-pNA
T16 chain: FVR

T17: AFP-pNA
T17 chain: AFP

T18: SFRAP-pNA
T18 chain: SFRAP

T19: pro-transglutaminase derived from S. mobaraense IFO13819 (transglutaminase having the pro-structure part)
T19 chain: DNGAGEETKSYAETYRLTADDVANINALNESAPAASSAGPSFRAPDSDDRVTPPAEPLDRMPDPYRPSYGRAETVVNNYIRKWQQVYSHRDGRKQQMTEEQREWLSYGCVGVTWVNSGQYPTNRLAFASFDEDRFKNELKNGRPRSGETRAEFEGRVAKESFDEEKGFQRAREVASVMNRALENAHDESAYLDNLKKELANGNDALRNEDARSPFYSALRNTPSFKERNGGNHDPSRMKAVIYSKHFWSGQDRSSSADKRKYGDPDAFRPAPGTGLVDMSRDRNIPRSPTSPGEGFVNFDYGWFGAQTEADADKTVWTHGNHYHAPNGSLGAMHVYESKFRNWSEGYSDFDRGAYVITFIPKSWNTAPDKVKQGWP


Tests used:
[1] = tested on: T1, pro-transglutaminase derived from S. mobaraense IFO13819 (transglutaminase having the pro-structure part)
AAA-pNA = target: T2, AAA-pNA
Z-GP-βNA = target: T3, Z-GP-βNA
Suc-AAPF-pNA = target: T4, Suc-AAPF-pNA
AP-pNA = target: T5, AP-pNA
Z-AGP-βNA = target: T6, Z-AGP-βNA
RP-pNA = target: T7, RP-pNA
FRAP-pNA = target: T8, FRAP-pNA
AAF-pNA = target: T9, AAF-pNA
AAPL-pNA = target: T10, AAPL-pNA
AAP-pNA = target: T11, AAP-pNA
PSFRAP-pNA = target: T12, PSFRAP-pNA
GP-βNA = target: T13, GP-βNA
DP-pNA = target: T14, DP-pNA
Z-GAP-βNA = target: T15, Z-GAP-βNA
Bz-FVR-pNA = target: T16, Bz-FVR-pNA
AFP-pNA = target: T17, AFP-pNA
SFRAP-pNA = target: T18, SFRAP-pNA
[2] = target: T19, pro-transglutaminase derived from S. …

Molecule	cleavage of the pro-transglutaminases by Dispase digestion (SDS-PAGE) [1]	relative activity (%) (AAA-pNA)	relative activity (%) (Z-GP-βNA)	relative activity (%) (Suc-AAPF-pNA)	relative activity (%) (AP-pNA)	relative activity (%) (Z-AGP-βNA)	relative activity (%) (RP-pNA)	relative activity (%) (FRAP-pNA)	relative activity (%) (AAF-pNA)	relative activity (%) (AAPL-pNA)	relative activity (%) (AAP-pNA)	relative activity (%) (PSFRAP-pNA)	relative activity (%) (GP-βNA)	relative activity (%) (DP-pNA)	relative activity (%) (Z-GAP-βNA)	relative activity (%) (Bz-FVR-pNA)	relative activity (%) (AFP-pNA)	relative activity (%) (SFRAP-pNA)	N-terminal amino acid sequence of the cleaved transglutaminase (SAMP45 and svPEP co-secreted) [2]
Dispase (Boeringer Manheim Co. Ltd.)	the cleavage of the pro-transglutaminases was confirmed by SDS-PAGE																		
proline specific peptidase (svPEP) produced by S. mobaraense IFO13819 (protein) QADIKDRILKIPGMKFVEEKPYQGYRYLVMTYRQPVDHRNPGKGTFEQRFTLLHKDTDRPTVFFTSGYNVSTNPSRSEPTRIVDGNQVSMEYRFFTPSRPQPADWSKLDIWQAASDQHRLYQALKPVYGKNWLATGGSKGGMTATYFRRFYPNDMNGTVAYVAPNDVNDKEDSAYDKFFQNVGDKACRTQLNSVQREALVRRDEIVARYEKWAKENGKTFKVVGSADKAYENVVLDLVWSFWQYHLQSDCASVPATKASTDELYKFIDDISGFDGYTDQGLERFTPYYYQAGTQLGAPTVKNPHLKGVLRYPGINQPRSYVPRDIPMTFRPGAMADVDRWVREDSRNMLFVYGQNDPWSGEPFRLGKGAAARHDYRFYAPGGNHGSNIAQLVADERAKATAEVLKWAGVAPQAVQKDEKAAKPLAPFDAKLDRVKNDKQSALRP		8.5%	0.04%	0.01%	0.53%	0.78%	0.94%	49%	4.1%	0.3%	100%	0.2%	0.4%	0%	1.2%	0.002%	26.3%	1.23%	it had the same sequence as the naturally occurring transglutaminase derived from S. mobaraense having Asp as the N-terminal amino acid
